Consider five sequences from publication PMC8524982.

The subject of this data set is T1, His6-OsnR (Corynebacterium glutamicum), ORF:93dbb295.
T1 sequence: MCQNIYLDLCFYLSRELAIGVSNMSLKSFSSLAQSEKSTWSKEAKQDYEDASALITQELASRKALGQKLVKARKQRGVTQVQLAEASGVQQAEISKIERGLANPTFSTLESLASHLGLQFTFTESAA
Description: EMSA. Conditions: 20 mM HEPES pH 7.4, 2.5 mM MgCl2, 75 mM KCl, 0.5 mM EDTA, 2 mM DTT, 10% glycerol, 1 ug poly d(I-C), 100 ng/ul BSA; 30 ng DNA in 20 ul, 30 C, 30 min; 5% PAGE …. (In EMSA bound probe runs differently from free probe, usually more slowly.)
As for “ACCGCTTCTAAGCACCCAACTCGCCAAAACTAGGACAACAGGTCGCCGCAGACAGTCGACCGCTTAAAACGCCACACAGCACCCCACTTCACATAACCCCAAGTCGGAAACAAAAGCCCCCAACCTGCACAGATGTCAACTATTTCAACCAGCCAGAAACTATCTCCAAAAGCTAATAAAACCCTTGCACTGACAAATAAGGCGACCTACCATGACTCTGTTTCCAACACATAAAAAGGATAAAAAATGTCACTTTCAGTCGTCGAGGCG (double strand) [cg0404 promoter]”, the binding entry is listed as “no binding”.

For “CAAGCGTGGGGATTCCTGGCTCGATGCTCATGCTTCACTTCCTTATCTTTTGAAACCATGTGCAGCTGTTTTTCTCTTCATTTTTCTCTTCATACACTGACACAGTTCAACTCAATCAAATAGTCAACTATGCAAGGTAGTCGACTATGTGGCATAGTCGCCATAGTTGAGTTTTATTCATGGCTTTTAGCTAGGCGACTTTAGTTGAGGGCTTTTAGTTGAGGGCTTCCCAGCAGGGATGGTTAAGGAGAATTCAGTGAACCAACAGAGTAAAAAGTGGCTCGTACCGACACTGGT (double strand) [cg0026 promoter]”, the binding result is “binds”.

For “GGCGAGGCCACGTTCAATCTTGCTTATTTCTGCCTGTTGGACTCCAGAAGCTTCAGCAAGTTGAACTTGGGTGACTCCTCGTTGTTTCCGAGCCTTGACTAGTTTTTGGCCAAGAGCTTTTCGTGAGGCGAGTTCTTGAGTGATTAGCGCGGAAGCGTCCTCGTAATCTTG (double strand) [osnR ORF (+110 to +286)]”, the binding entry is given as “no binding”.

Turning to “GGCTGCTCAGACATAAGATGTGCTCCTAATTTAGAAATCGGATGTGGGCTGGACTGGGAAGGCAACTAACTGGTGCTTTGTCGTCCACGTATCTCAACGCATATGACTATAAAAAGCTTCCCAAGTACCAGTTCAGTCTATAATTCGCGGTGTTATTGAGATGGTTTGAGGCTGGAAAGCTTCGATTGCAGCCAGTTGTTGAGTACTTCAGAGGCGTGATCTCTGGCGGGTTTCCTTGAGAGGAAAATATCGTGGCGAGCGTTGTCGATGAT (double strand) [mtr promoter]”, the binding entry is “no binding”.

As for “TTTGGTGGTGGGCAATGCTGCGACCATCTTTATGAATCTCATTGGCTGCCGGGAAGGCCGCGACCCCTTGCTGCTCATCGCGGTTCTCACGTTCCCGCTGTATTGGCTGCTCATGAGCATTGCAGCGTTGAAAGGCACGTGGCAATTGATCACGCGACCATCCTATTGGGAGAAAACTGCCCACGGATTGGAGGCGTAAGCGGTGCCCATCGTCAAACCAATGCCGGCACTG (double strand) [cg0165 promoter]”, the binding entry is “binds”.
